Target: ubiquitin (UniProt P0CG48)

Substance	Kcat/Km of Ub-AMC hydrolysis in vitro (substrate Ub-AMC, R&D Systems; 1.0 μM enzyme; 25°C)	also measured
PRRSV DV PLP2_(385-578) V518S (domain or fragment)		Kcat/Km of Ub-AMC hydrolysis in vitro (substrate Ub-AMC, R&D Systems; 0.5 μM enzyme; 25°C): 1100 M⁻¹ s⁻¹
PRRSV DV PLP2_(385-578) V518S/V520A (domain or fragment)	133 M⁻¹ s⁻¹	
PRRSV DV PLP2_(385-578) V520A (domain or fragment)	190 M⁻¹ s⁻¹	
wt PRRSV DV PLP2_(385-578) (domain or fragment)		Kcat/Km of Ub-AMC hydrolysis in vitro (substrate Ub-AMC, R&D Systems; 25°C): 5000 M⁻¹ s⁻¹

From PMC10754444
